Assays:
PC-3 xenografts = test: in vivo; design: species or system BALB/c nu/nu mice; conditions: mouse; for Blood uptake / Kidney uptake / Liver uptake / Small int. uptake / Stomach uptake / Tumor uptake / Lung uptake / Pancreas uptake / GI tract uptake / Bone uptake / Spleen uptake: female, BALB/c nu/nu; for GI tract uptake: iv, 45 pmol/mouse
Experimental: (§1) For biodistribution studies, 16 female BALB/c nu/nu mice (age 15–16 weeks) bearing PC-3 xenografts (inoculated subcutaneously with 8 × 10^6 PC-3 cells three weeks before the experiment) were randomized into groups of four. The mice were intravenously injected into the tail vein with a mixture of [^64Cu]Cu-X-RM26 and [^57Co]Co-X-RM26 and were euthanized at 3 and 24 h p.i. Injected activity was adjusted to 300 kBq/mouse for ^64Cu- and 40 kBq/mouse for ^57Co-labeled conjugates. The total injected peptide mass was adjusted to 45 pmol/mouse (in 100 μL). Blood, kidney, pancreas, liver, lung, bone, muscle, tumor, spleen, stomach, small intestines, and the rest of the GI tract with content were collected, weighed, and their activity content was measured in a gamma-counter. The ^64Cu activities were determined from measurements performed on the day of the experiment, while the ^57Co activities were measured after two weeks to allow the ^64Cu to decay. Tissue uptake of the radiopeptides was calculated as a percent of injected dose per gram tissue (%ID/g), with exception of the GI tract for which tissue uptake was calculated as %ID per whole sample.

in vivo = test: in vivo; design: species or system BALB/c nu/nu mice; conditions: female, BALB/c nu/nu, mouse, total radioactivity
Experimental: as §1

SMILES | Blood uptake (PC-3 xenografts; 3 h) | Kidney uptake (PC-3 xenografts; 3 h) | Liver uptake (PC-3 xenografts; 3 h) | Small int. uptake (PC-3 xenografts; 3 h) | Stomach uptake (PC-3 xenografts; 3 h) | Tumor uptake (PC-3 xenografts; 3 h) | Lung uptake (PC-3 xenografts; 24 h) | Pancreas uptake (PC-3 xenografts; 24 h) | GI tract uptake (PC-3 xenografts; 3 h) | GI tract uptake (PC-3 xenografts; 24 h) | Pancreas uptake (PC-3 xenografts; 3 h) | Blood uptake (PC-3 xenografts; 24 h) | Liver uptake (PC-3 xenografts; 24 h) | Tumor uptake (PC-3 xenografts; 24 h) | also measured
CC(C)C[C@H](NC(=O)C[C@H](O)[C@H](CC(C)C)NC(=O)[C@H](Cc1c[nH]cn1)NC(=O)CNC(=O)[C@@H](NC(=O)[C@H](C)NC(=O)[C@H](Cc1c[nH]c2ccccc12)NC(=O)[C@H](CCC(N)=O)NC(=O)[C@@H](Cc1ccccc1)NC(=O)COCCOCCNC(=O)CN1CCN(CC(=O)O)CCN(CC(=O)O)CC1)C(C)C)C(N)=O [[^57Co]Co-NOTA-PEG2-RM26] | 0.02 %ID/g | 0.51 %ID/g | 0.06 %ID/g | 0.34 %ID/g | 0.59 %ID/g | 3.27 %ID/g | 0.02 %ID/g | 0.02 %ID/g | 0.26 %ID | 0.02 %ID |  |  |  |  | tissue uptake at 3 h (in vivo; Bone uptake): 0.11 %ID/g; tissue uptake at 24 h (in vivo; Muscle uptake): 0.01 %ID/g; tissue uptake at 24 h (in vivo; Spleen uptake): 0.04 %ID/g; tissue uptake at 24 h (in vivo; Tumor uptake): 0.31 %ID/g
CC(C)C[C@H](NC(=O)C[C@H](O)[C@H](CC(C)C)NC(=O)[C@H](Cc1c[nH]cn1)NC(=O)CNC(=O)[C@@H](NC(=O)[C@H](C)NC(=O)[C@H](Cc1c[nH]c2ccccc12)NC(=O)[C@H](CCC(N)=O)NC(=O)[C@@H](Cc1ccccc1)NC(=O)COCCOCCNC(=O)CCC(C(=O)O)N1CCN(CC(=O)O)CCN(CC(=O)O)CC1)C(C)C)C(N)=O (stereo partly drawn) [[^64Cu]Cu-NODAGA-PEG2-RM26, metal not drawn] |  | 0.90 %ID/g | 0.28 %ID/g | 0.24 %ID/g | 0.27 %ID/g | 2.31 %ID/g | 0.04 %ID/g | 0.04 %ID/g | 1.02 %ID | 0.03 %ID | 0.27 %ID/g | 0.02 %ID/g | 0.16 %ID/g | 0.16 %ID/g | Bone uptake (PC-3 xenografts; 3 h): 0.08 %ID/g; Lung uptake (PC-3 xenografts; 3 h): 0.12 %ID/g; Spleen uptake (PC-3 xenografts; 3 h): 0.05 %ID/g; Bone uptake (PC-3 xenografts; 24 h): 0.13 %ID/g; Kidney uptake (PC-3 xenografts; 24 h): 0.12 %ID/g; Small int. uptake (PC-3 xenografts; 24 h): 0.05 %ID/g; Spleen uptake (PC-3 xenografts; 24 h): 0.02 %ID/g; Stomach uptake (PC-3 xenografts; 24 h): 0.08 %ID/g; Muscle uptake (PC-3 xenografts; 24 h): 0.00 %ID/g
CC(C)C[C@H](NC(=O)C[C@H](O)[C@H](CC(C)C)NC(=O)[C@H](Cc1c[nH]cn1)NC(=O)CNC(=O)[C@@H](NC(=O)[C@H](C)NC(=O)[C@H](Cc1c[nH]c2ccccc12)NC(=O)[C@H](CCC(N)=O)NC(=O)[C@@H](Cc1ccccc1)NC(=O)COCCOCCNC(=O)CN1CCN(CC(=O)O)CCN(CC(=O)O)CC1)C(C)C)C(N)=O [[^64Cu]Cu-NOTA-PEG2-RM26, metal not drawn] | 0.06 %ID/g |  | 0.59 %ID/g | 0.72 %ID/g | 1.19 %ID/g |  |  |  | 0.76 %ID | 0.07 %ID | 1.31 %ID/g | 0.04 %ID/g | 0.49 %ID/g | 0.42 %ID/g | tissue uptake at 24 h (in vivo; Bone uptake): 0.15 %ID/g; tissue uptake at 3 h (in vivo; Kidney uptake): 0.46 %ID/g; tissue uptake at 24 h (in vivo; Kidney uptake): 0.25 %ID/g; tissue uptake at 3 h (in vivo; Muscle uptake): 0.02 %ID/g; tissue uptake at 24 h (in vivo; Small int. uptake): 0.12 %ID/g; tissue uptake at 3 h (in vivo; Spleen uptake): 0.1 %ID/g; tissue uptake at 24 h (in vivo; Stomach uptake): 0.14 %ID/g; tissue uptake at 3 h (in vivo; Tumor uptake): 3.94 %ID/g

— PMC7766840, “Preclinical Evaluation of the Copper-64 Labeled GRPR-Antagonist RM26 in Comparison with the Cobalt-55 Labeled Counterpart for PET-Imaging of Prostate Cancer” (Molecules, 2020)
